Measurements as given in patent US20220048948A1 (REGENTS OF THE UNIVERSITY OF MINNESOTA, published 2022).
No end group written: not given here.

Assays:
[1] = target: T1, FLAG-tagged rhsCD40 (Alexis) (human, UniProt P25942 21-193, limits assumed); test: ELISA, peptide and FLAG-tagged rhsCD40 (1 ug/ml), detected with HRP anti-FLAG antibody, TMB, OD 450 nm
T1 construct: Bought reagent (Alexis); also called recombinant human CD40; human CD40; not shown: FLAG tag
Method: Binding of the identified peptides to CD40 was analyzed by ELISA. Briefly, plates were coated with […] and then incubated with identified peptides and detected using Flag-tagged rhsCD40.
In order to confirm the specificity of the peptides to interfere with CD40:CD154 interaction, the specificity of peptides 1-7 as listed in table 1 to bind to human […] by ELISA was tested. Briefly, 96 well ELISA (Nunc Immunolon) plates were coated with the peptides in carbonate buffer. The wells are washed and probed with FLAG-tagged rhsCD40 (1 μg/ml; Alexis) and developed with HRP conjugated rabbit anti-FLAG antibody. The plates were washed and the enzymatic activity was determined using 3,3′,5,5′-tetramethyl-benzidine substrate for 15 minutes and the reaction was stopped by the addition of 2 M H2SO4, and optical density was measured at 450 nm, with the correction wavelength set at 620 nm.

[2] = target: CD40 on Rhesus macaque peripheral blood mononuclear cells / B cells (Rhesus macaque, UniProt F6SNI1 21-278); test: cell-based or functional assay

T1 sequence (P25942 21-193 limits assumed): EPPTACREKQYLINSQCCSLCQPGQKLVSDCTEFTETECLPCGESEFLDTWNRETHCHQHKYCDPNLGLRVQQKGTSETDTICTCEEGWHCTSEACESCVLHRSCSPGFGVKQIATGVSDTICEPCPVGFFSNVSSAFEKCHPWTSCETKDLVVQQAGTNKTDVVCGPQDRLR

B1: Peptide 1 (control CD40-binding peptide) (peptide)
peptide: VLQWAEKGYYTMSNN
modifications: also: also used fluorescently labelled (dye and position not given here), called cyclic, no cyclisation chemistry given
notes: also called control Peptide 1
[1]
  binding result: binds
[2]
  MHC class II expression on B cells after activation with recombinant hCD40L, peptide at 30 µM: 50 % reduction

B2: Peptide 2 (peptide)
peptide: VLQWAERGFYTTSNN
modifications: also: also made with a fluorescent label, dye and site not given here
[1]
  binding result: binds
[2]
  MHC class II expression on B cells after activation with recombinant hCD40L, peptide at 30 µM: 50 % reduction

B3: Peptide 3 (peptide)
peptide: VVQWAEKGFFTMSNN
modifications: also: also made with a fluorescent label, dye and site not given here
[1]
  binding result: binds
[2]
  MHC class II expression on B cells after activation with recombinant hCD40L, peptide at 30 µM: 50 % reduction

B4: Peptide 4 (peptide)
peptide: VLNWADKAYFTMSQN
modifications: also: also made with a fluorescent label, dye and site not given here
[1]
  binding result: binds
[2]
  MHC class II expression on B cells after activation with recombinant hCD40L, peptide at 30 µM: 50 % reduction

B5: Peptide 5 (peptide)
peptide: LVNWADKAFYTTSNN
modifications: also: also made with a fluorescent label, dye and site not given here
[1]
  binding result: binds
[2]
  MHC class II expression on B cells after activation with recombinant hCD40L, peptide at 30 µM: 50 % reduction

B6: Peptide 6 (peptide)
peptide: LLQWAERGYFMTSNN
modifications: also: also made with a fluorescent label, dye and site not given here
[1]
  binding result: binds
[2]
  MHC class II expression on B cells after activation with recombinant hCD40L, peptide at 30 µM: 50 % reduction

B7: Peptide 7 (peptide)
peptide: VVQWAEKGYYTMSQN
modifications: also: also made with a fluorescent label, dye and site not given here
[1]
  binding result: binds
[2]
  MHC class II expression on B cells after activation with recombinant hCD40L, peptide at 30 µM: 50 % reduction
